From the supplement of paper PMC12636428

These sequences were tested on Saccharomyces cerevisiae (assay: transcriptional activation domain activity (GFP:mCherry ratio, weighted mean of sorted bins, harmonized to initial dataset scale) (arbitrary fluorescence ratio units); higher = stronger transcriptional activation). Conditions: beta-estradiol 1 µM; induction time 4 h.
Procedure, shortened: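 Activation activity, the read-weighted mean of bin median fluorescence averaged across barcodes, was linearly mapped onto the scale of the initial dataset. It was measured for barcoded protein tiles fused to an estradiol-inducible synthetic transcription factor at URA3 in GFP-reporter yeast diploids. Cultures diluted 1:5 into SC with 1 uM beta-estradiol were held 4 hours at 30 °C, sorted into 8 bins by GFP:mCherry ratio, and barcode-sequenced, and tiles under 50 reads were discarded.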

| Sequence | transcriptional activation domain activity |
| --- | --- |
| KKPPARLLAKKAPAAAAGGEEGSSKSAAKPAAPPVKKVVPAAAAAKPAKGGAP | 28400 |
| SKPSARKASSRSVASKEQAAVAAKKVASVEEQKKKRGRPRKLPLSDATNEVAS | 42100 |
| EASRSKAATAAAAAADGGKSAAAGEVEERKRKAKAEREAKKAKGALAAAAGAG | 31600 |
| GGEGRGGHPAACRGGCFARYPFTPSFLLYFLLLFFYRGVHVPISFFFLFLFLF | 46500 |
| KMVHRPLLWYFTVFLVDMYTALRLFRLGFRHYAPRTQTRSWFRVFPPRPFTWV | 71700 |
| CLLGTGSFWGLVYISLAYMDGFAFKYLLQFHHIIKLLWISTVGGLIMIAFWSF | 52900 |
| TKFYPNKSIETQLMKNKYCDVVHLTRYAAWSNNKKDQDTSSQPLIDEIFGLYS | 61500 |
| DSAMRAIYSFRNSYIAFILFNGSIYYYVARFFGFYHKVLDSPIVGFRWVDLHL | 58300 |
| MPTNFTKEGRTCTVTYKIQVHMIRPAVFIDFITLWIRQTFGMIVMVVTAELPR | 47800 |
| FKDNPKVIETKDKVMHYNTQLRYHGLRDHQVNIRNTRRHAIALLIWRVVQMVF | 39500 |
| MTLCTFFGCLLTAYSPLLSIFFLYIAPNAQYVLLMVASAFFCLLALLLSSVIW | 55000 |
| MAGAVPVLMLILLLLSHLCTAFKFYSESGFALVRKILLTALPTFEPHHYQMDG | 71600 |
| IGLQVLLGWSYVMINPLAIYSSPYLILFSFSSLVYLVLVNVLTLPSSLPFFHP | 87600 |
| QREARKEHIKSLVAPGLPFLSIDTYKDLNDKWVLKGVFRGLLVLRGLAHHLRT | 63100 |
| GMPESTVEDVGGPSTATVEEGGPREVEATVQGVEEASTSAPVKRGRGRPRKTS | 30800 |
| DKEAKADVEEKPKTPRGRKRKTAEEVNGEEAQTEKEPPVKKTKPASKAKPASK | 42600 |
| MFKSVFCLFSVLSFLLFHACFIYHSFFSFLFLLMMKLLLWLCATFATKWLFFC | 69500 |
| LILNCYWIVLVAFTFNMEVEYCKIVSVVGKLSSKFLGRVQVFLLLFMLMLFLV | 50600 |
| SLYLCLGMLYLRKNPLLKEPLTLEHIKARLLGHWGSDAGQIFTYIHFNRLIKK | 69300 |

| Sequence | transcriptional activation domain activity |
| --- | --- |
| NQLHRPPPEILKLFEASVRFEMQIRRLIAKDWLCVATWWLLKARATLANCNRH | 69100 |
| FFLLIALLPAWVVGFCIVFSIAMSCAAYDTLQVSLVATVSNDLFRNKISIWWV | 42000 |
| SSLSSSSFIKSHPGPDPFQQLSSAEHPNNHSSDDEHSGSQPLPLDSITIGIPP | 53200 |
| LSADYLCQYSGSLIGKHFKSLAQVMPFIIYDLVPKTVLNAWNVIGNLVVMLWH | 46100 |
| NESGPGAADEDAEEDDEESDEDGAGRKRKKPKVEPKPKPERKAPAPAPADGEK | < 6570 |
| HAGTMESHPHTNIHEELKEFLSGDLIEAEDNAKLMFGDDNSNPADYLLEFGSG | 72500 |
| KRVKKEETVEKKPAVETEAPKKRGRKAAVSASAEEPKAAPAKRSRRKVSATAA | 13300 |
| SVEVEMEDAPKPKRRGRPPGSGKKKAPAGEDAAAAAPEKKKRTPAKKASAGSA | 42700 |
| ITNGLYTGLGIKVPITKLQKYTPLEVALHSWRLVYMYFWSSFCLLIVCLIIFL | 65800 |
| DSKGFEARRANMGNDVELTGARAIVLVNIWNVQTSCGLSVPLVVQSNSGTECG | 59400 |
| AVVILGDLHPRGYNSNWFLMYYTGWLTFIFFITLLWALANLAWLRYTARVLPC | 29300 |
| SLSRKKRGRGRPKGSKNKKSGDGAASSAAPSGDATGKRKRGRPPKEKPAEATA | 44300 |
| MAPWDDAPAPFAADGDADDVTGSELAERFNKESGKVNAQLSAFPSALLCGRDK | 61900 |
| MFFIFFFWFVFFPLTIFLLSSSIFGFLFSSSFLFYYYYFFLWGGRPFIFPFYS | 33300 |
| FWFPNYLFEALTFFSWMTWISPNNLNLEILTGFRNGLGMFNPWPTFDWNVLLF | 51500 |
| MLCIWLLSLYVWFVQEKGAYKPVLSSSFFFWLILQVYVHRYWLPFPSLTFLYH | 55500 |
| VGLKWGMGRDKSFSFTSKLNNPQFLGSLDLEILEELEKLISAQEFSRNFTEDV | 70100 |
| MADEHAAHRRKRARLACLACNARRVKCNVAECRPCHNCAAANVPCETRESRRG | 38300 |
